The target in this test is Fas/Apo-1 receptor (human) (UniProt P25445). Kind of test: cell-based or functional assay.
Sequence of UniProt P25445 (P25445 26-335): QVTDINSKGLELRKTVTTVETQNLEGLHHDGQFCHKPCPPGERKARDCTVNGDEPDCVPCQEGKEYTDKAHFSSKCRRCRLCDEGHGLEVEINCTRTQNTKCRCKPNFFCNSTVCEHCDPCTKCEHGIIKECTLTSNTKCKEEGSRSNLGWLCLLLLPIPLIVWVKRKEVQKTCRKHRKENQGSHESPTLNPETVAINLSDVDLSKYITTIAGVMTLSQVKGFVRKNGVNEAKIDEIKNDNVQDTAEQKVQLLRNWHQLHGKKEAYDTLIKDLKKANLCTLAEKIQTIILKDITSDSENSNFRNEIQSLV

anti-Apo-1 monoclonal antibody, CH11: the % apoptotic cells, 9D cells, CH11 1 ug/ml, 24 h (control 22.5) turned out to be 90.8%; the % apoptotic cells, Jurkat cells, CH11 1 ug/ml, 24 h (control 5.9) was determined as 18.1%; the % apoptotic cells, Raji cells, CH11 1 ug/ml, 24 h (control 35.9) was found to be 83.7%.

For the origin of these results see patent US20060041106A1.
